{
  "source": "patent US20030228654A1",
  "about": "“Method for producing antimicrobial protein and fusion protein” (KABUSHIKI KAISHA TOYOTA CHUO KENKYUSHO, priority 2000, published 2003)",
  "molecules": {"B1": {"name": "Example 2: Fusion protein of barley thionin and PDI from Fumicola insolens (SEQ ID No: 2); refolded, cleaved with Factor Xa (protein)", "chain": "EKHMIEGRMKSCCRSTLGRNCYNLCRVRGAQKLCAGVCRCKLTSSGKCPTGFPKMIEGRTLALVSNSDEPDTVKYCNLGCRASMCDYMVNAAADDEEMKLYLENCGDACVNFCNGDAGLTSLTA", "modifications": "Hordeum vulgare"}},
  "system": "Ceratocystis fimbriata",
  "test": "Assay of antimicrobial activity: growth inhibition of Ceratocystis fimbriata spore suspension in 96-well microplate, absorbance at 415 nm",
  "type": "cell-based",
  "settings": "Factor Xa-cleaved, concentrated protein solution 30 μl per well; MES buffer pH 6; 26° C.; absorbance 415 nm, 48 hours vs 30 minutes",
  "method": "As shown in SEQ ID No: 1, 2 or 4, the fusion proteins of Examples 1 and 2 and Comparative Example 2 thus dialyzed retained the recognition sequence of a protease Factor Xa in between thionin and the partner protein. Then, the fusion protein was subjected to cleavage with Factor Xa of 30 μg per 1 mg of each fusion protein described above at 30° C. overnight.\nThe protein solution recovered by the cleavage procedures was concentrated to 30 μl using Microcon-3 (MWCO: 3000) as a concentration unit with a filtration membrane. Such great number of concentrated sample solutions were divided at 30 μl each in the individual wells of a 96-well microplate, followed by addition of 10 μl of 200 mM MES [2-(N-morpholino)ethanesulfonic acid] buffer at pH 6 and 60 μL of a spore suspension of Ceratocystis fimbriata (100,000 spores per 1 ml-80% potato dextrose broth). Then, the resulting mixtures were cultured at 26° C. […]\nThen, the absorbance 30 minutes and 48 hours later was measured at 415 nm with a microplate reader of Model 3550. The growth inhibition was determined by the following formula (1). Herein, A represents the value obtained by subtracting the absorbance measured 30 minutes later from that measured 48 hours later in each concentrated sample solution, and B represents the same value in a solution not containing the sample. […]",
  "data": [
    {"molecule": "B1", "values": [
      {"measurement": "Growth inhibition (%)", "result": 99.1, "unit": "%"}
    ]}
  ]
}
